# Results as given in patent US20240317834A1, “COMPOSITIONS AND METHODS FOR NEUROLOGICAL DISEASES” (CODA BIOTHERAPEUTICS, INC., priority 2020, published 2024).
# Test system: Lenti-X 293T cells
# Experiment: YFP fluorescence quenching anion reporter plate reader assay of engineered receptors stimulated with acetylcholine or a non-native ligand
# Assay type: cell-based
# Settings: for percent quench of YFP fluorescence, 30 nM TC-6683: TC-6683 30 nM; for percent quench of YFP fluorescence, 300 nM TC-6683: TC-6683 300 nM; for percent quench of YFP fluorescence, 3 uM TC-6683: TC-6683 3 uM; for percent quench of YFP fluorescence, 30 uM TC-6683: TC-6683 30 uM; for percent quench of YFP fluorescence, 100 uM TC-6683: TC-6683 100 uM; for percent quench of YFP fluorescence, 10 uM ach: acetylcholine 10 uM; for percent quench of YFP fluorescence, 100 uM ach: acetylcholine 100 uM; for percent quench of YFP fluorescence, 1 mM ach: acetylcholine 1 mM; for percent quench of YFP fluorescence, 3 mM ach: acetylcholine 3 mM
# Method in brief: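 YFP quench was followed for about 1 min 43 s after ligand delivered in iodide-based ECS, pH 7.2. Values are end-of-read fluorescence (last 10 s) divided by the pre-ligand baseline (15 s). Cells were LX293T, transfected with receptor DNA a day before the assay.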
molecule,measurement,setting,value
"CODA535: engineered chimeric LGIC receptor, L131T, S172D in SEQ ID NO: 33 (protein, synthetic sequence of chimeric LGIC) MRCSPGGVWLALAASLLHVSLQGEFQRKLYKELVKNYNPLERPVANDSQPLTVYFSLSLLQIMDVDEKNQVLTTNIWLQMSWTDHYLQWNVSEYPGVKTVRFPDGQIWKPDILLYNSADERFDATFHTNVTVNSSGHCQYLPPGIFKSSCPMDLKNFPMDVQTCKLKFGSWDYGGWSLDLQMQEADISGYIPNGEWDLVGIPGKRSERFYECCKEPYPDVTFTVTMRRRMGYYLIQMYIPSLLIVILSWISFWINMDAAPARVGLGITTVLTMTTQSSGSRASLPKVSYVKAIDIWMAVCLLFVFSALLEYAAVNFVSRQHKELLRFRRKRRHHKSPMLNLFQEDEAGEGRFNFSAYGMGPACLQAKDGISVKGANNSNTTNPPPAPSKSPEEMRKLFIQRAKKIDKISRIGFPMAFLIFNMFYWIIYKIVRREDVHNQ",YFP fluorescence quenching using CNL001,"1 nM CNL001, first column",8.736%
same,YFP fluorescence quenching using CNL001,"1 nM CNL001, second column",24.572%
same,YFP fluorescence quenching using CNL001,"10 nM CNL001, first column",60.552%
same,YFP fluorescence quenching using CNL001,"10 nM CNL001, second column",63.09%
same,YFP fluorescence quenching using Facinicline,30 nM fac,−21.36
same,YFP fluorescence quenching using CNL001,"50 nM CNL001, first column",73.242%
same,YFP fluorescence quenching using CNL001,"50 nM CNL001, second column",73.889%
same,YFP fluorescence quenching using ABT-126,50 nM abt,−11.09%
same,YFP fluorescence quenching using CNL001,"100 nM CNL001, first column",76.147%
same,YFP fluorescence quenching using CNL001,"100 nM CNL001, second column",76.21%
same,YFP fluorescence quenching using CNL002,100 nM CNL002,1.23%
same,YFP fluorescence quenching using ABT-126,100 nM abt,−10.37%
same,YFP fluorescence quenching using AZD-0328,100 nM azd0328,−7.02%
same,YFP fluorescence quenching using ABT-126,300 nM abt,−4%
same,YFP fluorescence quenching using AZD-0328,300 nM azd0328,−0.48%
same,YFP fluorescence quenching using Facinicline,300 nM fac,4.17
same,YFP fluorescence quenching using CNL001,"1 uM CNL001, first column",78.988%
same,YFP fluorescence quenching using CNL001,"1 uM CNL001, second column",78.818%
same,YFP fluorescence quenching using CNL002,1 uM CNL002,35.77%
same,YFP fluorescence quenching using ABT-126,1 uM abt,4.05%
same,YFP fluorescence quenching using TC-6987,1 uM tc6987,−21.8
same,YFP fluorescence quenching using TC-6987,10 uM tc6987,−27.08
same,YFP fluorescence quenching using CNL002,30 uM CNL002,68.29%
same,YFP fluorescence quenching using AZD-0328,30 uM azd0328,70.16%
same,YFP fluorescence quenching using Facinicline,30 uM fac,65.94
same,YFP fluorescence quenching using TC-6987,500 uM tc6987,−21.56
same,"percent quench of YFP fluorescence, 30 nM TC-6683",,−29.362%
same,"percent quench of YFP fluorescence, 300 nM TC-6683",,−28.954%
same,"percent quench of YFP fluorescence, 3 uM TC-6683",,−23.708%
same,"percent quench of YFP fluorescence, 30 uM TC-6683",,−23.431%
same,"percent quench of YFP fluorescence, 100 uM TC-6683",,−18.324%
same,"percent quench of YFP fluorescence, 10 uM ach",,−12.24%
same,"percent quench of YFP fluorescence, 100 uM ach",,−26.23%
same,"percent quench of YFP fluorescence, 1 mM ach",,−1.16%
same,"percent quench of YFP fluorescence, 3 mM ach",,2.97%
"CODA534: engineered chimeric LGIC receptor, L131S, S172D in SEQ ID NO: 33 (protein, synthetic sequence of chimeric LGIC) MRCSPGGVWLALAASLLHVSLQGEFQRKLYKELVKNYNPLERPVANDSQPLTVYFSLSLLQIMDVDEKNQVLTTNIWLQMSWTDHYLQWNVSEYPGVKTVRFPDGQIWKPDILLYNSADERFDATFHTNVSVNSSGHCQYLPPGIFKSSCPMDLKNFPMDVQTCKLKFGSWDYGGWSLDLQMQEADISGYIPNGEWDLVGIPGKRSERFYECCKEPYPDVTFTVTMRRRMGYYLIQMYIPSLLIVILSWISFWINMDAAPARVGLGITTVLTMTTQSSGSRASLPKVSYVKAIDIWMAVCLLFVFSALLEYAAVNFVSRQHKELLRFRRKRRHHKSPMLNLFQEDEAGEGRFNFSAYGMGPACLQAKDGISVKGANNSNTTNPPPAPSKSPEEMRKLFIQRAKKIDKISRIGFPMAFLIFNMFYWIIYKIVRREDVHNQ",YFP fluorescence quenching using CNL001,"1 nM CNL001, first column",23.438%
same,YFP fluorescence quenching using CNL001,"1 nM CNL001, second column",28.59%
same,YFP fluorescence quenching using TC-5619/Bradanicline,1 nM brd,−1.13%
same,YFP fluorescence quenching using TC-5619/Bradanicline,3 nM brd,−3.83%
same,YFP fluorescence quenching using CNL001,"10 nM CNL001, first column",56.882%
same,YFP fluorescence quenching using CNL001,"10 nM CNL001, second column",56.777%
same,YFP fluorescence quenching using TC-5619/Bradanicline,10 nM brd,−3.78%
same,YFP fluorescence quenching using Facinicline,30 nM fac,−23.44
same,YFP fluorescence quenching using CNL001,"50 nM CNL001, first column",65.044%
same,YFP fluorescence quenching using CNL001,"50 nM CNL001, second column",67.373%
same,YFP fluorescence quenching using ABT-126,50 nM abt,−11.96%
same,YFP fluorescence quenching using CNL001,"100 nM CNL001, first column",68.666%
same,YFP fluorescence quenching using CNL001,"100 nM CNL001, second column",70.357%
same,YFP fluorescence quenching using CNL002,100 nM CNL002,14.26%
same,YFP fluorescence quenching using ABT-126,100 nM abt,−10.72%
same,YFP fluorescence quenching using AZD-0328,100 nM azd0328,−9.32%
same,YFP fluorescence quenching using TC-5619/Bradanicline,100 nM brd,−2.03%
same,YFP fluorescence quenching using ABT-126,300 nM abt,11.65%
same,YFP fluorescence quenching using AZD-0328,300 nM azd0328,4.94%
same,YFP fluorescence quenching using Facinicline,300 nM fac,2.75
same,YFP fluorescence quenching using CNL001,"1 uM CNL001, first column",73.019%
same,YFP fluorescence quenching using CNL001,"1 uM CNL001, second column",73.527%
same,YFP fluorescence quenching using CNL002,1 uM CNL002,45.55%
same,YFP fluorescence quenching using ABT-126,1 uM abt,−3.06%
same,YFP fluorescence quenching using TC-5619/Bradanicline,1 uM brd,1.68%
same,YFP fluorescence quenching using TC-6987,1 uM tc6987,−20.99
same,YFP fluorescence quenching using Facinicline,10 uM fac,69.71
same,YFP fluorescence quenching using TC-6987,10 uM tc6987,−27.62
same,YFP fluorescence quenching using CNL002,30 uM CNL002,64.93%
same,YFP fluorescence quenching using AZD-0328,30 uM azd0328,60.61%
same,YFP fluorescence quenching using Facinicline,30 uM fac,61.44
same,YFP fluorescence quenching using TC-6987,500 uM tc6987,−24.22
same,"percent quench of YFP fluorescence, 30 nM TC-6683",,−22.464%
same,"percent quench of YFP fluorescence, 300 nM TC-6683",,−23.976%
same,"percent quench of YFP fluorescence, 3 uM TC-6683",,−24.897%
same,"percent quench of YFP fluorescence, 30 uM TC-6683",,−20.474%
same,"percent quench of YFP fluorescence, 100 uM TC-6683",,−22.253%
same,"percent quench of YFP fluorescence, 10 uM ach",,−11.3%
same,"percent quench of YFP fluorescence, 100 uM ach",,−27.53%
same,"percent quench of YFP fluorescence, 1 mM ach",,2.84%
same,"percent quench of YFP fluorescence, 3 mM ach",,14.65%
